Test results published in article PMC9963953, “Structures of MPND Reveal the Molecular Recognition of Nucleosomes”.

Target: T1, MPND 54-163 (RAMA domain, crystal) (Mus musculus, UniProt Q3TV65 54-163)
T1 sequence: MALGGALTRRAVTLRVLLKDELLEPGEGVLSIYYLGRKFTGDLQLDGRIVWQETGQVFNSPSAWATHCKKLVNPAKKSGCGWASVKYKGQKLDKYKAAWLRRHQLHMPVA
Experiment: X-ray crystallography (2.47 A); EMSA: 20 mM HEPES pH 7.2, 100 mM NaCl, 2 mM DTT, 0.1% NP-40, 20 uM protein, 5 uM DNA, on ice; MST: 20 mM HEPES pH 7.2, 100 mM NaCl, 0.1% NP-40, 22 C; pull-down: 20 mM HEPES pH 7.2, 0.15 M NaCl, 1 mM DTT, 4 C
Details: protein: recombinant; tags: tag removed with TEV; 18 bp, 5' overhangs 1 nt

B1: crystallization dsDNA (dsDNA)
DNA 1: CAGCAACAGAAGAGGATCT
DNA 2: GAGATCCTCTTCTGTTGCT
binding result: binds
